Read-outs that look alike come from different tables or passages of the source. Values belong to the substance of their own block, whether it stands above or below them.
Assays:
[1] = target: D3H44 light chain Q124E_T180E (Kabat), N-terminal HA or FLAG tag; test: LCCA co-expression, competing light chain m38, L1:L2 DNA 1:3 normalized to 1:1, SPR tag read-out
[2] = target: D3H44 light chain Q124E_Q160E_T180E (Kabat), N-terminal HA or FLAG tag; test: as above
[3] = target: D3H44 light chain Q124E_T178E (Kabat), N-terminal HA or FLAG tag; test: as above
[4] = target: D3H44 light chain Q124R_Q160K_T178R (Kabat), N-terminal HA or FLAG tag; test: LCCA co-expression, competing light chain m39, L1:L2 DNA 1:3 normalized to 1:1, SPR tag read-out
[5] = target: D3H44 light chain Q124R_Q160K_T178R (Kabat), N-terminal HA or FLAG tag; test: LCCA co-expression, competing light chain m40, L1:L2 DNA 1:3 normalized to 1:1, SPR tag read-out
[6] = target: D3H44 light chain Q124R_Q160K_T178R (Kabat), N-terminal HA or FLAG tag; test: LCCA co-expression, competing light chain m37, L1:L2 DNA 1:3 normalized to 1:1, SPR tag read-out
[7] = target: D3H44 light chain Q124R_Q160K_T178R (Kabat), N-terminal HA or FLAG tag; test: LCCA co-expression, competing light chain m39, L1:L2 DNA 1:9 normalized to 1:1, SPR tag read-out
[8] = target: D3H44 light chain Q124E_Q160E_T180E (Kabat), N-terminal HA or FLAG tag; test: LCCA co-expression, competing light chain m38, L1:L2 DNA 1:9 normalized to 1:1, SPR tag read-out
[9] = target: D3H44 light chain Q124E_T180E (Kabat), N-terminal HA or FLAG tag; test: LCCA co-expression, competing light chain m36, L1:L2 DNA 1:3 normalized to 1:1, SPR tag read-out
[10] = target: D3H44 light chain Q124E_T180E (Kabat), N-terminal HA or FLAG tag; test: LCCA co-expression, competing light chain m36, L1:L2 DNA 1:9 normalized to 1:1, SPR tag read-out
[11] = target: D3H44 light chain S131K (Kabat), N-terminal HA or FLAG tag; test: LCCA co-expression, competing light chain m37, L1:L2 DNA 1:3 normalized to 1:1, SPR tag read-out
[12] = target: D3H44 light chain S131K (Kabat), N-terminal HA or FLAG tag; test: LCCA co-expression, competing light chain m37, L1:L2 DNA 1:9 normalized to 1:1, SPR tag read-out
[13] = target: tissue factor (TF) antigen (UniProt P13726); test: SPR (ProteOn XPR36), Fab captured on anti-penta-His surface, TF as analyte, 1:1 fit; estimated value from a Fab differing only in the L chain tag (HA or FLAG)
[14] = target: tissue factor (TF) antigen (UniProt P13726); test: SPR (ProteOn XPR36), Fab captured on anti-penta-His surface, TF as analyte; reference wild-type D3H44 Fab; estimated value from a Fab differing only in the L chain tag
[15] = target: tissue factor (TF) antigen (UniProt P13726); test: SPR (ProteOn XPR36), Fab captured on anti-penta-His surface, TF as analyte; reference wild-type D3H44 Fab; batch C
[16] = target: tissue factor (TF) antigen (UniProt P13726); test: SPR (ProteOn XPR36), Fab captured on anti-penta-His surface, TF as analyte, 1:1 fit; batch C (stored about 2 months at 4 C)
[17] = target: tissue factor (TF) antigen (human (from the antibody's name 'anti-human tissue factor'; not stated for the antigen lot in the assay)) (UniProt P13726); test: SPR (ProteOn XPR36): Fab captured via His tag on anti-penta His surface, TF injected, 1:1 fit; batch C (+)
[18] = target: tissue factor (TF) antigen (human (from the antibody's name 'anti-human tissue factor'; not stated for the antigen lot in the assay)) (UniProt P13726); test: SPR (ProteOn XPR36), Fab captured on anti-penta His, TF analyte; against wild-type D3H44 Fab; batch C by the KD cell's +
[19] = target: tissue factor (TF) antigen (UniProt P13726); test: SPR as for KD; reference: wild-type D3H44 Fab
[20] = target: tissue factor (TF) antigen (UniProt P13726); test: SPR, ProteOn XPR36; His-tagged Fab captured on anti-penta-His, TF injected; 1:1 fit; estimated (*) from the Fab that differs only in the L chain tag
[21] = target: tissue factor (TF) antigen (UniProt P13726); test: SPR, ProteOn XPR36; His-tagged Fab captured on anti-penta-His, TF injected; 1:1 fit
[22] = target: tissue factor (TF) antigen (UniProt P13726); test: SPR as for KD; reference: wild-type D3H44 Fab; estimated (*) from the Fab that differs only in the L chain tag
[23] = target: tissue factor (TF) antigen (UniProt P13726); test: SPR (ProteOn XPR36), Fab captured on anti-penta-His surface, TF injected as analyte, 1:1 fit; marked * (estimated from a Fab that differs only in the L chain tag)
[24] = target: tissue factor (TF) antigen (UniProt P13726); test: SPR (ProteOn XPR36), Fab captured on anti-penta-His surface, TF injected as analyte, 1:1 fit; marked * (estimated from a Fab that differs only in the L chain tag); reference wild-type D3H44 Fab
[25] = target: tissue factor (TF) antigen (UniProt P13726); test: SPR (ProteOn XPR36), Fab captured on anti-penta-His surface, TF injected as analyte, 1:1 fit; the row's other values are marked * (estimated); reference wild-type D3H44 Fab
[26] = target: D3H44 Fab heavy chain L124R_D146N_Q179K (H1 of LCCA sets 9358, 9359, 9357, 9351, 9352, 9353, 9354, 9350); test: LCCA: H1 co-expressed with L1 and L2 (DNA 333:250:749 ng), His-tag capture on SPR chip, light chain tags detected with anti-HA/anti-FLAG; competitor L1 V133G_S176D_T178E_T180E
[27] = target: D3H44 Fab heavy chain L124R_D146N_Q179K (H1 of LCCA sets 9358, 9359, 9357, 9351, 9352, 9353, 9354, 9350); test: LCCA: H1 co-expressed with L1 and L2 (DNA 333:250:749 ng), His-tag capture on SPR chip, light chain tags detected with anti-HA/anti-FLAG; competitor L1 Q124E_V133G_S176D_T178E_T180E
[28] = target: D3H44 Fab heavy chain L124E_L143D_K145T (H1 of LCCA sets 9214, 9217, 9216, 9219, 9220, 9225, 9228, 9229)
[29] = target: D3H44 Fab heavy chain L124E_L143E_K145M (H1 of LCCA sets 9269, 9266, 9267, 9260, 9262, 9263)
[30] = target: D3H44 Fab heavy chain L124E_L143E_K145M (H1 of LCCA sets 9269, 9266, 9267, 9260, 9262, 9263); test: LCCA: H1 co-expressed with L1 and L2 (DNA 333:250:749 ng), His-tag capture on SPR chip, light chain tags detected with anti-HA/anti-FLAG; competitor L2 V133G_S176D_T178D_T180E
[31] = target: D3H44 Fab heavy chain L124E_L143D_K145T (H1 of LCCA sets 9214, 9217, 9216, 9219, 9220, 9225, 9228, 9229); test: LCCA: H1 co-expressed with L1 and L2 (DNA 333:250:749 ng), His-tag capture on SPR chip, light chain tags detected with anti-HA/anti-FLAG; competitor L2 Q124E_V133G_S176D_T178E_T180E
[32] = target: D3H44 Fab heavy chain L124E_L143E_K145M (H1 of LCCA sets 9269, 9266, 9267, 9260, 9262, 9263); test: as above
[33] = target: D3H44 Fab heavy chain L124E_L143D_K145T (H1 of LCCA sets 9214, 9217, 9216, 9219, 9220, 9225, 9228, 9229); remark: listed apart in the source
[34] = target: tissue factor (TF) (human) (UniProt P13726); test: SPR (ProteOn), Fab captured on anti-penta His, TF analyte, 1:1 fit; estimated from Fab differing only in L chain tag

H1L1:H1L2 normalized median ratio [1]: 41 of 100
H1L1:H1L2 normalized median ratio [2]: 28 of 100
H1L1:H1L2 normalized median ratio [3]: 41 of 100
H1L1:H1L2 normalized median ratio [4]: 72 of 100
H1L1:H1L2 normalized median scalar value ln(r1/f1) [4]: 0.96
H1L1:H1L2 normalized median ratio [5]: 59 of 100
H1L1:H1L2 normalized median scalar value ln(r1/f1) [5]: 0.36
H1L1:H1L2 normalized median ratio [6]: 59 of 100
H1L1:H1L2 normalized median scalar value ln(r1/f1) [6]: 0.38
Substance: D3H44 Fab heavy chain L143E_K145T (Kabat), C-terminal ABD2-His6 tag

H1L1:H1L2 normalized median ratio [2]: 16 of 100
H1L1:H1L2 normalized median ratio [7]: 88 of 100
H1L1:H1L2 normalized median scalar value ln(r1/f1) [7]: 1.97
H1L1:H1L2 normalized median ratio [8]: 12 of 100
H1L1:H1L2 normalized median ratio [4]: 84 of 100
H1L1:H1L2 normalized median scalar value ln(r1/f1) [4]: 1.68
Substance: D3H44 Fab heavy chain L143E_K145T_Q179D (Kabat), C-terminal ABD2-His6 tag

H2L2:H2L1 normalized median ratio [1]: 96 of 100
H2L2:H2L1 normalized median ratio [2]: 87 of 100
H2L2:H2L1 normalized median ratio [3]: 96 of 100
H2L2:H2L1 normalized median ratio [9]: 98 of 100
H2L2:H2L1 normalized median ratio [7]: 12 of 100
H2L2:H2L1 normalized median ratio [8]: 88 of 100
H2L2:H2L1 normalized median ratio [4]: 13 of 100
H2L2:H2L1 normalized median ratio [5]: 4 of 100
H2L2:H2L1 normalized median ratio [10]: 88 of 100
H2L2:H2L1 normalized median ratio [11]: 2 of 100
H2L2:H2L1 normalized median ratio [6]: 4 of 100
H2L2:H2L1 normalized median ratio [12]: 12 of 100
Substance: D3H44 Fab heavy chain Q179K (Kabat), C-terminal ABD2-His6 tag

Kd [13]: 0.28 nM
Change in median values of KD of h1l1 Fab heterodimer compared to wild type (-(log(KD design)-log(KD wt))) [14]: -0.25
Substance: D3H44 Fab heterodimer H1 L143D_K145T_Q179E / L1 T178R

Change in median values of KD of h1l1 Fab heterodimer compared to wild type (-(log(KD design)-log(KD wt))) [15]: 0.17
Kd [13]: 0.11 nM
Kd [16]: 0.11 nM
Change in median values of KD of h1l1 Fab heterodimer compared to wild type (-(log(KD design)-log(KD wt))) [14]: 0.17
Substance: D3H44 Fab heterodimer H1 L143E_K145T_Q179D / L1 T178R

Kd [17]: 0.17 nM
Change in median values of KD of h1l1 Fab heterodimer compared to wild type (-(log(KD design)-log(KD wt))) [18]: -0.03
Substance: D3H44 Fab heterodimer, H1 Q39R_Q179K / L1 Q38E_Q124E_Q160E_T180E (H1L1 Fab of LCCA set 9827)

change in median KD compared to wild type, -(log(KD design)-log(KD wt)) [19]: -0.12
Kd [20]: 0.21 nM
Kd [21]: 0.21 nM
change in median KD compared to wild type, -(log(KD design)-log(KD wt)) [22]: -0.12
Substance: D3H44 Fab heterodimer, H1L1 of LCCA Sets # 9705, 9706, 9704 and 9703 (H1 L143E_K145T_S188L; L1 Q124R)

Kd [23]: 0.21 nM
Change in median KD of h1l1 Fab heterodimer compared to wild type (-(log(KD design)-log(KD wt))) (log(KD) difference) [24]: -0.12
Change in median KD of h1l1 Fab heterodimer compared to wild type (-(log(KD design)-log(KD wt))) (log(KD) difference) [25]: -0.12
Substance: D3H44 H1L1 Fab heterodimer, H1 L124E_L143E_K145T, L1 Q124K_V133G_S176R_T178K

median LCCA performance normalized to a L1:L2 DNA ratio of 1:1 (ratio H1-L1:H1-L2), H1-L2 share (ratio part of 100) [26]: 26
median LCCA performance normalized to a L1:L2 DNA ratio of 1:1 (ratio H1-L1:H1-L2), H1-L2 share (ratio part of 100) [27]: 18
Substance: D3H44 light chain Q124K_V133G_Q160K_S176R

median LCCA performance normalized to a L1:L2 DNA ratio of 1:1 (ratio H1-L1:H1-L2), H1-L1 share (ratio part of 100) [28]: 76
median LCCA performance normalized to a L1:L2 DNA ratio of 1:1 (ratio H1-L1:H1-L2), H1-L1 share (ratio part of 100) [29]: 87
median LCCA performance normalized to a L1:L2 DNA ratio of 1:1 (ratio H1-L1:H1-L2), H1-L1 share (ratio part of 100) [30]: 62
median LCCA performance normalized to a L1:L2 DNA ratio of 1:1 (ratio H1-L1:H1-L2), H1-L1 share (ratio part of 100) [31]: 83
median LCCA performance normalized to a L1:L2 DNA ratio of 1:1 (ratio H1-L1:H1-L2), H1-L1 share (ratio part of 100) [32]: 84
median LCCA performance normalized to a L1:L2 DNA ratio of 1:1 (ratio H1-L1:H1-L2), H1-L1 share (ratio part of 100) [33]: 87
Substance: D3H44 light chain Q124K_V133G_S176R_T178R

Kd [34]: 0.28 nM
change in KD vs wild type, -(log(KD design)-log(KD wt)) [34]: -0.25
Substance: H1L1 Fab heterodimer of LCCA set 9585 (D3H44 Fab; H: L143E_K145T; L: Q124R)
